Laboratory results as given in US20090111753A1, “Nogo-A Polypeptide Fragments, Variant Nogo Receptor-1 Polypeptides, and Uses Thereof” (Yale University, priority 2004, published 2009).
Numbering of substitutions follows the chain as printed.

B1: 114, 117: human NgR1 mutant, listed residues mutated to alanine (protein)
chain: CPGACVCYNEPKVTTSCPQQGLQAVPVGIPAASQRIFLHGNRISHVPAASFRACRNLTILWLHSNVLARIDAAAFTGLALLEQLDLSANAALRSVDPATFHGLGRLHTLHLDRCGLQELGPGLFRGLAALQYLYLQDNALQALPDDTFRDLGNLTHLFLHGNRISSVPERAFRGLHSLDRLLLHQNRVAHVHPHAFRDLGRLMTLYLFANNLSALPTEALAPLRALQYLRLNDNPWVCDCRARPLWAWLQKFRGSSSEVPCSLPQRLAGRDLKRLAANDLQGCAVATGPYHPIWTGRATDEEPLGLPKCCQPDAADKASVLEPGRPASAGNALKGRVPPGDSPPGNGSGPRHINDSPFGTLPGSAEPPLTAVRPEGSEPPGFPTSGPRRRPGCSRKNRTRSHCRLGQAGSGGGGTGDSEGSGALPSLTCSLTPLGLALVLWTVLGPC
B2: 196, 199: human NgR1 mutant, listed residues mutated to alanine (protein)
chain: B1 chain with A88D, A91Q, R170A, R173A
B3: 127, 151: human NgR1 mutant, listed residues mutated to alanine (protein)
chain: B1 chain with A88D, A91Q, H101A, R125A
B4: 277, 279: human NgR1 mutant, listed residues mutated to alanine (protein)
chain: B1 chain with A88D, A91Q, K251A, R253A
B5: 267, 269: human NgR1 mutant, listed residues mutated to alanine (protein)
chain: B1 chain with A88D, A91Q, R241A, R243A
B6: 189, 191, 237: human NgR1 mutant, listed residues mutated to alanine (protein)
chain: B1 chain with A88D, A91Q, R163A, S165A, N211A
B7: 189, 191: human NgR1 mutant, listed residues mutated to alanine (protein)
chain: B1 chain with A88D, A91Q, R163A, S165A
B8: 143, 144: human NgR1 mutant, listed residues mutated to alanine (protein)
chain: B1 chain with A88D, A91Q, Q117A, E118A
B9: 127, 176: human NgR1 mutant, listed residues mutated to alanine (protein)
chain: B1 chain with A88D, A91Q, H101A, D150A
B10: 189, 191, 284: human NgR1 mutant, listed residues mutated to alanine (protein)
chain: B1 chain with A88D, A91Q, R163A, S165A, E258A
B11: 202, 205: human NgR1 mutant, listed residues mutated to alanine (protein)
chain: B1 chain with A88D, A91Q, H176A, D179A

test system: NgR ligands; assay: Binding of alanine substituted NgR mutants to NgR ligands, summary categories; settings: AP-Nogo66, AP-B4C, AP-B4C66, AP-Lingo-1, AP-OMgp and AP-MAG; compared to wild type NgR
From the text: To better define how multiple ligands bind to the NgR protein, we examined a series of Ala-substituted NgR for ligand binding activity. NgR mutagenesis was done using the Quick Change Multisite Directed Mutagenesis Kit (Stratagene catalog #200514). Human NgR1 was used as a template. Ala substitutions were generated for each of the charged residues predicted to be solvent accessible at the surface of the ligand binding domain of NgR (Barton, W. A., et al., Embo J. 22:3291-3302 (2003); He, X. L., et al., Neuron 38:177-185 (2003)). We generated mutants in which 1-8 surface residues localized within 5 A of one another were Ala-substituted. Because of the coiling nature of the LRR structure, as residues juxtaposed on the protein surface are commonly separated by approximately 25 residues in the primary structure. In addition to mutations in specific charged surface patches, other mutations were targeted to glycosylation sites and to regions predicted to be involved in ligand binding based on the NgR structure (Barton, W. A., et al., Embo J. 22:3291-3302 (2003); He, X. L., et al., Neuron 38:177-185 (2003)). In addition, a variant corresponding to a human polymorphism was examined (D259N). None of the mutations altered the Leu residues that define the LRR structure itself or the Cys residues critical in the amino and carboxyl terminal capping domains. The vast majority of such Ala surface substitution mutants were expressed as immunoreactive polypeptides with a molecular weight and an expression level indistinguishable from wild type NgR (FIG. 4C and data not shown).
This collection of 74 individual NgR mutants was interrogated for AP-Nogo-66, AP-Amino-Nogo-B4C, AP-MAG, AP-OMgp, and AP-Lingo-1 binding. AP-Nogo66, AP-MAG, AP-OMGP and AP-Lingo-1 constructs are described elsewhere (Fournier, A. E., et al., Nature 409:341-346 (2001); Liu, B. P., et al., Science 297:1190-1193 (2002); Mi, S., et al., Nat. Neurosci. 7:221-228 (2004); Wang, K. C., et al., Nature 417:941-944 (2002b)). The properties of the NgR mutants fell into one of three major categories (Table II and FIG. 5). A number of Ala substituted NgR polypeptides bound all of the ligands at wild type levels. […] In addition, a significant extent of the concave surface is dispensable for ligand binding.
Alanine substituted NgR mutants were tested for their binding to AP-Nogo66, AP-B4C, AP-B4C66, AP-Lingo-1, AP-OMgp and AP-MAG and they fall into three categories: (1) Mutants that lose binding to all NgR ligands. (2) Mutants that still maintain binding to all NgR ligands. […] The D259N mutant is an asparagine substitution to mimic a human polymorphism.

ligand binding category of NgR mutant (Table II) | Molecule
Binding to all ligands | B1
Binding to all ligands | B2
Binding to all ligands | B3
Binding to all ligands | B4
Binding to all ligands | B5
Binding to all ligands | B6
Binding to all ligands | B7
Binding to all ligands | B8
Binding to all ligands | B9
Binding to all ligands | B10
Binding to all ligands | B11
